# Laboratory results taken from patent publication US20090215689A1 (TECNOGEN S P A, published 2009).
# B1: synthetic peptide PTX3(31-60) (peptide)
# peptide: DNEIDNGLHPTEDPTPCDCGQEHSEWDKLF
# B2: synthetic peptide PTX3(82-110) (peptide)
# peptide: RGELQRLREELGRLAESLARPCAPGAPAE
# notes: also called parental peptide PTX3(82-110)
# B3: synthetic peptide PTX3(82-101) (peptide)
# peptide: RGELQRLREELGRLAESLAR
# B4: synthetic peptide PTX3(82-96) (peptide)
# peptide: RGELQRLREELGRLA
# B5: synthetic peptide PTX3(57-85) (peptide)
# peptide: DKLFIMLENSQMRERMLLQATDDVLRGEL
# What was measured:
# [1] = biological target: T1, Human recombinant FGF2 (Fibroblast growth factor-2) (human, UniProt P09038 134-288, limits assumed); assay: solid phase assay: peptide-coated wells (200 µg/well), FGF2 80 nM, detection with anti-FGF2 antibody
# Experimental: (§1) Then, wells were overcoated for 2 hours at room temperature with 5% dry milk in coating buffer. […] Then, 100 μl/well of the chromogen substrate 2,29-azinobis(3-ethylbenzthiazolinesulfonic acid) were added. Absorbance values were read at 405 nm in an automatic ELISA reader.
# [2] = biological target: T1, Human recombinant FGF2 (Fibroblast …); assay: SPR competition (printed as ID50): competitor with FGF2 0.8 µM in the mobile phase over immobilized PTX3
# Experimental: (§2) The response was recorded at the end of injection and plotted as a function of the antagonist concentration.
# (§3) A BIAcore X apparatus (BIAcore Inc, Piscataway, N.J.) was used.
# [3] = biological target: T1, Human recombinant FGF2 (Fibroblast …); assay: SPR competition: competitor with FGF2 0.8 µM in the mobile phase over immobilized PTX3
# From the text: as §3
# [4] = biological target: T1, Human recombinant FGF2 (Fibroblast …); assay: solid phase assay: peptide-coated wells (200 µg/well), FGF2 80 nM, detection with anti-FGF2 antibody; remark: listed apart in the source
# Experimental: as §2, §1
# [5] = biological target: T1, Human recombinant FGF2 (Fibroblast …); assay: SPR competition: FGF2 0.8 µM over immobilized PTX3 with the peptide in the mobile phase
# Experimental: The response was recorded at the end of injection and plotted as a function of the antagonist concentration. […] The response was recorded at the end of injection and plotted as a function of the antagonist concentration.
# as §3
# T1 sequence (P09038 134-288 limits assumed): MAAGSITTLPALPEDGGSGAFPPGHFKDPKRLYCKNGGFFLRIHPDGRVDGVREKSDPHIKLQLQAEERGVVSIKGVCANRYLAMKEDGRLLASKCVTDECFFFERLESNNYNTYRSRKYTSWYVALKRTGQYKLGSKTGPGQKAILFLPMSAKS
binder,measurement,setting,value
B1,binding result,[1],no binding (tested: FGF2 80 nM)
B2,IC50,[2],30 µM
same,fold lower potency than free full length PTX3,[3],30 fold
B3,binding result,[4],no binding (tested: FGF2 80 nM)
B4,binding result,[5],no binding (tested: about 3000 µM)
B5,binding result,[1],no binding (tested: FGF2 80 nM)
